Data taken from article PMC3971453, “Crystallographic structure of the turbine C-ring from spinach chloroplast F-ATP synthase” (Bioscience Reports, 2014).

Biological target: the molecule itself
Assay: crystal structure; crystals grown from the entire CF1FO-ATP synthase (18 mg/ml), vapour diffusion, 33% (v/v) PEG 550 MME, 0.05 M sodium acetate pH 4.3; only the c-ring in the crystal; molecular replacement with PDB 2W5J; refined to 6.0 Å

B1: subunit c of the CF1FO-ATP synthase from spinach chloroplasts (natural protein, spinach (Spinacea oleracea L.), UniProt P69447 1-81, looked up)
chain: MNPLIAAASVIAAGLAVGLASIGPGVGQGTAAGQAVEGIARQPEAEGKIRGTLLLSLAFMEALTIYGLVVALALLFANPFV
notes: ATP synthase subunit c (subunit III), chloroplastic, Spinacia oleracea; native protein from the tissue; the last four C-terminal amino acids are not visible in the electron density map; Native, untagged protein; Homo-oligomeric ring of 14 copies; also called subunit III; c-ring; source: the c-ring alone was left in the crystal; copies: 14
- stoichiometry N: 14
